We go through 132 substances from the supplement of paper PMC12042874.

This data set can be described thus: amyloid nucleation score (Sup35N fusion, yeast selection) (log enrichment); library NNK3; higher = more nucleation; inactive = no reads after selection. The procedure, abridged: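 Nucleation score is defined as the DiMSum log enrichment of output over input reads, with centring on the mode score of non-aggregating sequences. A minimum of 100 input reads was required for each sequence. Reads came from Illumina sequencing of plasmid inserts from psi-negative yeast expressing Sup35N fused to peptides of 20 random codons, induced with 100 μM copper sulfate for 24 hours and grown 7 days at 30°C on medium lacking adenine and uracil.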

± gives the uncertainty stated by the source.

In the case of LDDRQSVCGTAYKVMTDIS, the amyloid nucleation score result is “inactive”.
The figure for FFAILHLRVNARMCYGNGAY is 0.435 ± 0.48; for GQRNVVSYTSNMNVPLFSFG it is “inactive”; for VWSHSI it is “inactive”.
The entry for YIKCKFF is “inactive”.
The entry for YPSCRTSLSARHMVFQGITL is “inactive”; for TANCLVCVTCSGLMRTT it is 2.82 ± 0.054.
As for LYLKYLELEILRPYGAFICH, the amyloid nucleation score result is “inactive”.
The entry for NTSDPSNRFLPFLYVRLHSS is “inactive”; for GPYNCFVH it is “inactive”.
In the case of LFSGSHWCRDNMWSSGAIDA, the amyloid nucleation score entry is “inactive”.
For GVYPSGCYLNVRFWSLVHGA the value was “inactive”.
The figure for VSTSVDYFYGGPWTLVFGCL is 2.6 ± 0.072.
In the case of VHLQGITSITVGIWPHKHLD, the amyloid nucleation score result was “inactive”.
The entry for RLCLFLDPIY is “inactive”; for VNSDEPMHWRSSGNYRARIV it is “inactive”.
Turning to WGKTRFWRVSSWLLNDVWRV, the amyloid nucleation score result was “inactive”.
For DMIVNYCTAQRSFVSIVSIK, the amyloid nucleation score entry was “inactive”.
The entry for NTFCIFALTYIQWVPYLAMF is “inactive”.
For HDMVREVDPILFMTLFRGGF the value was -0.517 ± 1.2; for SLSPAGSGSFFGKGFWMMLA, “inactive”; for TSWLVWRKGNGLGGNGQQRR, “inactive”.
For RYRPHNPDVVN the value was “inactive”; for RYCNVFVKIVALCGYKGSWS, 2.64 ± 0.06; for FRPAN, -0.286 ± 0.78.
As to RTCSQTIDIGVRNWINEQIM, the amyloid nucleation score entry is “inactive”.
For the substance HCSWTSSAHEGPYAETGHWQ, the amyloid nucleation score amounted to 0.557 ± 0.24.
The figure for SAYRKTHHSCYNVLYVFMMC is 1.49 ± 0.082; for TPHFYLIYALGISLIFWFVE it is “inactive”.
For SYDVKSSTLW the value was “inactive”; for DQYLTVSHKTTTFRMCPQSG, “inactive”.
The entry for RIDSMRRMGYLNSIFGCFV is “inactive”; for SLGSPYRTRGCLNKSPPLAC it is “inactive”; for LASGRHQASVHCRVNSMMYS it is “inactive”.
VIGWKINGGYPERTS: the amyloid nucleation score is 0.239 ± 0.42.
For GSRGYGWFMKTFAYPRNCKN the value was “inactive”; for TYDTGWKCREPNVTIFNVWL, 2.91 ± 0.053.
The figure for SLRPMLYTSYSS is 0.914 ± 0.17; for NINIMPG it is “inactive”; for KLCTVSNRSVMPGIT it is “inactive”.
Substance FHQLGICKFKA returned an amyloid nucleation score of -0.387 ± 0.88.
For CRFSGCNESLGWKVGSTLVM, the amyloid nucleation score result is “inactive”.
The entry for IGINVRALRRGLTLVPL is “inactive”; for FRVLYDCGTGYAVCYAMEVK it is “inactive”; for CGGAMMKN it is “inactive”.
Take FYIICWWVLDQDFCAWL: the amyloid nucleation score entry was “inactive”.
For VRLTTWLAYNLMVSSDTMFC the value was “inactive”; for TAFTMGV, “inactive”.
The figure for ICELLRFDPMLTCFRM is 0.77 ± 0.2; for NERREANGWSYRDLHGSGFE it is “inactive”.
For VLVSVGLVLWACCLRLQ the value was “inactive”; for IRGEFLQQPFIVDRNHVRWL, “inactive”; for CTLRTVCHTGLLWVTFHRQY, 0.675 ± 0.18.
Regarding YCMVKL, the amyloid nucleation score result is “inactive”.
For YLSGS the value was “inactive”; for INNASRRPCNMHVDVYRLLR, “inactive”.
For QSCCKQQILYHRGQTRHQ the value was “inactive”.
Consider TSSLDEGTFV, for which the amyloid nucleation score was determined as 0.644 ± 0.16.
Consider ICQWDVKMPRCATG, for which the amyloid nucleation score result was “inactive”.
For GWSQYGACRVGVWGYRAPYN the value was “inactive”; for YVTTMFEITRGRSWYSRSLG, 0.611 ± 0.21.
For TYFKSGRNILAHIYMWLILG the value was “inactive”.
The entry for MYSHRRGRKLRLLESFYNLS is “inactive”.
For ISRNRQRSVIPGTTKLCMWV, the amyloid nucleation score entry was “inactive”.
As for LRGFKEVTTRLKVRLQLGM, the amyloid nucleation score is -0.731 ± 1.3.
CKFCFSAIFSLLYNRIGAPQ: the amyloid nucleation score entry is “inactive”.
Take CGCYSLMFFSMTCNEKLLSL: the amyloid nucleation score result was “inactive”.
For MTLRRKLSMTAV the value was “inactive”; for PRIRD, “inactive”; for FLNIGYLNSRYNFLRNSVLV, “inactive”.
The entry for WYIVTNR is “inactive”.
The entry for CLNNVLLASPPNCAGNL is “inactive”; for RGYEQERLWSSVWHFYNHWL it is 0.405 ± 0.23; for RTIRFRFIGWWLAIAEDCRG it is “inactive”.
The substance PSINWASVTVLGCAHSNFRC showed an amyloid nucleation score of 2.29 ± 0.064.
The entry for MFGRYSLLDILPLNMIRGNI is “inactive”.
TDETSGRSLGVVWEHHAMNH: the amyloid nucleation score result was “inactive”.
The figure for DWRLRSFICRAVVVCCINGD is 1.54 ± 0.077; for CLTIHWTVFSGAARLSFIMT it is “inactive”; for YCVYQWLSYSVCLFNLMECT it is “inactive”.
For WSMSSVTYNSVCSCGSWCE the value was 1.87 ± 0.091; for VSIRAVRYKVLGLFWSSTHV, “inactive”.
For HPHTHVR the value was “inactive”.
SNMIRVRWRVAFRGWMARCL: the amyloid nucleation score entry was “inactive”.
For YVPFNFMKHVIATVLSGV the value was 0.014 ± 0.77; for RCYALDFRWLILDVSYHGWG, “inactive”; for LSGENQLG, “inactive”.
For GHIWFIAEVNSICYLLFLVS the value was “inactive”; for PAKPGL, “inactive”.
For LWLCSYNATGSFVAKD the value was -0.246 ± 0.5; for EVVGVYRERMSSFLLQGVLL, -0.042 ± 0.98; for VYCHC, “inactive”.
Consider LIPSKRTSDRLFLGPATLDF, for which the amyloid nucleation score entry was “inactive”.
The entry for KAQEHPA is “inactive”; for VCTLGFFSKMGRGPRYYS it is “inactive”.
The figure for WCVMPFNSCTTLMYKFSEN is 1.66 ± 0.071; for SLSYFLSFS it is 1.14 ± 0.085; for PDAVTILGGVYHVVQSWG it is “inactive”.
On to NSDATIWYFHRCSRLYVAGM, for which the amyloid nucleation score entry was “inactive”.
For FMYVRCQIVADTCFGIASWG the value was -0.032 ± 0.82; for VRLFRVLWRIIPDGVSMKSV, “inactive”; for QKESYHY, “inactive”.
On to FSSRKSLCGLDLKECFTSVE, for which the amyloid nucleation score entry is “inactive”.
The entry for GPWLLRASNAHTWTRYGLVK is “inactive”; for QSGSTLTMLQWVIPSDSKLM it is “inactive”; for HAFEYVFISVTYQFNVKVIV it is “inactive”.
For SKLKATRTRL the value was “inactive”.
For YYIPFASFVSQTCY the value was “inactive”; for ANTGMWLRMFPCWAPWDRVE, “inactive”; for SKLFFRNTLVSIISM, “inactive”.
In turn, NLYMLNTQGMSVLISCVGRI showed an amyloid nucleation score of 0.996 ± 0.091.
For the substance VRFYVLSPKDFWAFLKILFR, the amyloid nucleation score result is “inactive”.
For LNGSCKCLKELFVCYRSWVN the value was -0.79 ± 0.93; for NCSWGRRKETTDLSGSKCWT, 0.881 ± 0.23.
Turning to FISDRQSASYPWVQFWPE, the amyloid nucleation score was 0.206 ± 0.7.
For LITCI the value was “inactive”.
For AYMCCYDAYTPRRSRCDWYI the value was -0.402 ± 1.1.
For ASEFKTSWWNV, the amyloid nucleation score was -0.549 ± 0.68.
QMCVVPTTY: the amyloid nucleation score result was “inactive”.
The entry for AQRGIYWTTKVD is “inactive”; for DSCTEVFVKGVTRSVIVGKG it is “inactive”; for RHLTVWLL it is “inactive”.
Consider SSLFLDCGFGV, for which the amyloid nucleation score entry is “inactive”.
The entry for NTPFFGTGLSQTIAVKHLQM is “inactive”.
The entry for DFMWLKGLNPSTLSLPWD is “inactive”; for RVVSSGRGNSHTAATGWLWQ it is “inactive”.
The figure for QQRHMLS is 0.294 ± 0.25; for IQLKDKNGDL it is “inactive”; for IRGSHGRWYSTHNCLTCDME it is “inactive”.
Turning to QQNQVSIDGCWV, the amyloid nucleation score result was “inactive”.
For GKIAVS the value was “inactive”.
For LCRRLQTGMAYHMVSSYFNW the value was “inactive”.
